Patent US20240167007A1 (RHEINISCHE FRIEDRICH WILHELMS UNIVERSIT T BONN, published 2024)

What was measured:
[1] = biological target: mannose 6-phosphate (M6P) receptor (MPR300) on human hepatoma cells (HuH7) (human), P11717; assay: cell-based or functional assay
[2] = biological target: the molecule itself; assay: size exclusion chromatography (Superdex 200), pH 7.0; self-association
Experimental: The indicated hASA-variants were separated by size exclusion chromatography using a Superdex 200 column (Amersham Pharmacia) linked to an Äkta FPLC system (GE Healthcare). The buffer was 150 mM NaCl, 20 mM Bis-Tris, pH 7.0. Fractions (0.5 ml) were collected and analysed on ASA activity using p-nitrocatechol sulfate as a substrate. Elution profiles of the four indicated hASA-variants are superimposed. While wildtype hASA presents as a dimer at neutral pH, E424A-mutants form octamers.

Chain of mannose 6-phosphate (M6P) receptor (MPR300) on human hepatoma cells (HuH7) (human), P11717 (P11717 41-2491): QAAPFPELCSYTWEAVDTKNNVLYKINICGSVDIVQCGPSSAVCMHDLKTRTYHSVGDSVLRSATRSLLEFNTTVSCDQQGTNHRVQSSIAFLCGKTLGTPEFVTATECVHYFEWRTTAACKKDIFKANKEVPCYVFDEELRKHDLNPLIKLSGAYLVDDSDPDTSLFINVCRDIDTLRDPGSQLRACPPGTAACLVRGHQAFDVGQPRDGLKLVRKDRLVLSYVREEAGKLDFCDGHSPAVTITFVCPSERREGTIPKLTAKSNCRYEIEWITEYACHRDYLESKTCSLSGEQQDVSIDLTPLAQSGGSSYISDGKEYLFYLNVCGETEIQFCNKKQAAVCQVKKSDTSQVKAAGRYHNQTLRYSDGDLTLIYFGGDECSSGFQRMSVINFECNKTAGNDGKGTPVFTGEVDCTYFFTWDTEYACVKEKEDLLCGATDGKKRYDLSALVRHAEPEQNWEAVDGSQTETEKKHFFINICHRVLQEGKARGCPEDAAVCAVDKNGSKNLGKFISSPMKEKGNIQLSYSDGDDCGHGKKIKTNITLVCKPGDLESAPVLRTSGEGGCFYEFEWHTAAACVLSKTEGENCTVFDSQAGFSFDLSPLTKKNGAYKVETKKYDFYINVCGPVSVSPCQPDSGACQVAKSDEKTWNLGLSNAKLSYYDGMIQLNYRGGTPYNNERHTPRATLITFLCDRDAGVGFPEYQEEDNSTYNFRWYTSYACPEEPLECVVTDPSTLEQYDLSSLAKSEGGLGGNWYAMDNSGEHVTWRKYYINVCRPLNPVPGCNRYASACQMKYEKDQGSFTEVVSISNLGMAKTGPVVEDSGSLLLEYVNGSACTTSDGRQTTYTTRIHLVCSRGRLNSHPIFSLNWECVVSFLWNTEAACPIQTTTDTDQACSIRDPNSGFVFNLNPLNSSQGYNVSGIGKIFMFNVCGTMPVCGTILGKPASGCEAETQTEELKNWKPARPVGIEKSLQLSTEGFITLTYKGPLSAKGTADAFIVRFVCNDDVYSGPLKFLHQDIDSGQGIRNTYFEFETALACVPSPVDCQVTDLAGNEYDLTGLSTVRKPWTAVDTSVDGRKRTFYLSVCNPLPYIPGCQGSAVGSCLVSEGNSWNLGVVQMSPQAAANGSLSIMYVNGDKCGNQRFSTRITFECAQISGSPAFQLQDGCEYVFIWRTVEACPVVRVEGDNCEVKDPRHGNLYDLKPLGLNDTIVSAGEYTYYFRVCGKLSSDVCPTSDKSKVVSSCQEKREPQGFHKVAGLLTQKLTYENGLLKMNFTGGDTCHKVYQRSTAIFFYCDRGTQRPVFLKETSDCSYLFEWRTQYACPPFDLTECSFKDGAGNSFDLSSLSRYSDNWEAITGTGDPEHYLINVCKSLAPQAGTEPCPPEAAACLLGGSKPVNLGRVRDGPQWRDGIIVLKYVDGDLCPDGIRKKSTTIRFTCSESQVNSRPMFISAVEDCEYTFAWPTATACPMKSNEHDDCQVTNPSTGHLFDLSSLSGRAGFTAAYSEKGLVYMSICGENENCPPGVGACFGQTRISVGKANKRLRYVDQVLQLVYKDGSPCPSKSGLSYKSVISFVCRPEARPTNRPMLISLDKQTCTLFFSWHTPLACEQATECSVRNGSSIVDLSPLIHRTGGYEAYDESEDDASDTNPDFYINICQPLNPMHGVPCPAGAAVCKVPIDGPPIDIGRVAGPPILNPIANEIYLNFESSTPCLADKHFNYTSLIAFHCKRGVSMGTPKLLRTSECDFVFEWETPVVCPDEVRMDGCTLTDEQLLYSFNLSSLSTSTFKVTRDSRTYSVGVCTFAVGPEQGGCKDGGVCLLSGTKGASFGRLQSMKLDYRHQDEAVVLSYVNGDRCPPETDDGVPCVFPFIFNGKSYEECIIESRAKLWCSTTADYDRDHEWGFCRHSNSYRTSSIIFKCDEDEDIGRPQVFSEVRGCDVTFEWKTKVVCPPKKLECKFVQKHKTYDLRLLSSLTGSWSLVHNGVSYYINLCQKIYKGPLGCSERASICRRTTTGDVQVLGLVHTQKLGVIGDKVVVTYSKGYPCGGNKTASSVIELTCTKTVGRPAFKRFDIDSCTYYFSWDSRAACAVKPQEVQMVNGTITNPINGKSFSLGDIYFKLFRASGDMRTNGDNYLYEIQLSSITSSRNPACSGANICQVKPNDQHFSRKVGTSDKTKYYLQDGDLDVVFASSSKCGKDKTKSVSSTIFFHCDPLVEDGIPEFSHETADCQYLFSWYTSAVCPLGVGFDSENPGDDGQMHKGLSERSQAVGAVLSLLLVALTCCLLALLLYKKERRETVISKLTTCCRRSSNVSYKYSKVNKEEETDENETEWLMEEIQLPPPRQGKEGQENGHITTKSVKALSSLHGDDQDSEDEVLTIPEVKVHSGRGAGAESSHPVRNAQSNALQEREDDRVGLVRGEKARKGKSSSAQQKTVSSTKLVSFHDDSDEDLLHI

Binder | uptake by the human hepatoma cell line HuH7, compared to wildtype hARSA (internalized enzyme by ELISA) [1] | binding result [2]
hARSA-mutant E424A, P15289 19-507 (enzyme) RPPNIVLIFADDLGYGDLGCYGHPSSTTPNLDQLAAGGLRFTDFYVPVSLCTPSRAALLTGRLPVRMGMYPGVLVPSSRGGLPLEEVTVAEVLAARGYLTGMAGKWHLGVGPEGAFLPPHQGFHRFLGIPYSHDQGPCQNLTCFPPATPCDGGCDQGLVPIPLLANLSVEAQPPWLPGLEARYMAFAHDLMADAQRQDRPFFLYYASHHTHYPQFSGQSFAERSGRGPFGDSLMELDAAVGTLMTAIGDLGLLEETLVIFTADNGPETMRMSRGGCSGLLRCGKGTTYEGGVREPALAFWPGHIAPGVTHELASSLDLLPTLAALAGAPLPNVTLDGFDLSPLLLGTGKSPRQSLFFYPSYPDEVRGVFAVRTGKYKAHFFTQGSAHSDTTADPACHASSSLTAHAPPLLYDLSKDPGENYNLLGGVAGATPEVLQALKQLQLLKAQLDAAVTFGPSQVARGEDPALQICCHPGCTPRPACCHCPDPHA | 20% | –
wildtype human arylsulfatase A (enzyme, Expressed in CHO cells and glycosylated; also called wildtype hARSA; wildtype hASA) RPPNIVLIFADDLGYGDLGCYGHPSSTTPNLDQLAAGGLRFTDFYVPVSLCTPSRAALLTGRLPVRMGMYPGVLVPSSRGGLPLEEVTVAEVLAARGYLTGMAGKWHLGVGPEGAFLPPHQGFHRFLGIPYSHDQGPCQNLTCFPPATPCDGGCDQGLVPIPLLANLSVEAQPPWLPGLEARYMAFAHDLMADAQRQDRPFFLYYASHHTHYPQFSGQSFAERSGRGPFGDSLMELDAAVGTLMTAIGDLGLLEETLVIFTADNGPETMRMSRGGCSGLLRCGKGTTYEGGVREPALAFWPGHIAPGVTHELASSLDLLPTLAALAGAPLPNVTLDGFDLSPLLLGTGKSPRQSLFFYPSYPDEVRGVFAVRTGKYKAHFFTQGSAHSDTTADPACHASSSLTAHEPPLLYDLSKDPGENYNLLGGVAGATPEVLQALKQLQLLKAQLDAAVTFGPSQVARGEDPALQICCHPGCTPRPACCHCPDPHA | – | binds
